# Assay results as given in patent US20150132821, “Systems and Methods for Improving Nuclease Specificity and Activity” (Georgia Tech Research Corporation, published 2015).
# T1: S-05 (S5) NK-TALEN (synthetic)
# T1 chain: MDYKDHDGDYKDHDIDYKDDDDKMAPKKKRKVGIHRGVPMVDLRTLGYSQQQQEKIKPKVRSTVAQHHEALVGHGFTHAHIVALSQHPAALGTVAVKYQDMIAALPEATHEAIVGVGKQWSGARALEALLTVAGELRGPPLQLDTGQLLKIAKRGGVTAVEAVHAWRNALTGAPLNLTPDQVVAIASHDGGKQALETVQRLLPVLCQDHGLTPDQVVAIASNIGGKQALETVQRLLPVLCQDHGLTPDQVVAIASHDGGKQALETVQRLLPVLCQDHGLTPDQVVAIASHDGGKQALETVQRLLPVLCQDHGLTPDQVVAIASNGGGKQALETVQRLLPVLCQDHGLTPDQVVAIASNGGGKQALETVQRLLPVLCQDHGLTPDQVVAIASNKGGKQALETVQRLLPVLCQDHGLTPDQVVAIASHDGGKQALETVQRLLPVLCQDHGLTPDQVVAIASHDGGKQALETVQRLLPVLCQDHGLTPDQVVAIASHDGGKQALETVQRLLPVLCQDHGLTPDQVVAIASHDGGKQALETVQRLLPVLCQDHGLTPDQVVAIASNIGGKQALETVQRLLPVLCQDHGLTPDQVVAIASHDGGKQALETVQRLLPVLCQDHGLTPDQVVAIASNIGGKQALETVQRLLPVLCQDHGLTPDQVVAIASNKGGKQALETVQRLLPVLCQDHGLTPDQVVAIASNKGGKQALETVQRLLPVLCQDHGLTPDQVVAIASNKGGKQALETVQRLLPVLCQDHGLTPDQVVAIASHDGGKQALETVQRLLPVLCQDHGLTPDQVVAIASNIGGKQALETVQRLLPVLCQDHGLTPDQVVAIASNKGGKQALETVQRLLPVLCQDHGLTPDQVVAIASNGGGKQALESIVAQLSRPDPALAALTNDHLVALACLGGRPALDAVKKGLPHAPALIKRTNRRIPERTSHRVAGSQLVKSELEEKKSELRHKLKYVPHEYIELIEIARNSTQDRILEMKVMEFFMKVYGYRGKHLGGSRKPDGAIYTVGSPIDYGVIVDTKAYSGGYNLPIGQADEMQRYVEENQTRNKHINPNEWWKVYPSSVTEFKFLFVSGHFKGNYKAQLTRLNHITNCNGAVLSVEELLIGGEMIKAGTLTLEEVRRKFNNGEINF
# B1: S-05 half-site (dsDNA)
# DNA 1: CACCTTGCCCCACAGGGCAGT
# DNA 2: ACTGCCCTGTGGGGCAAGGTG
# Columns and labels:
# [1] = tested on: S-11 NK-TALEN (synthetic); experiment: cell_activity; conditions: monomer SSA assay
# [2] = tested on: S-23 NK-TALEN (synthetic); experiment: cell_activity; conditions: monomer SSA assay
# [3] = tested on: S-36 NK-TALEN (synthetic); experiment: cell_activity; conditions: monomer SSA assay
# [4] = tested on: S-34 NK-TALEN (synthetic); experiment: cell_activity; conditions: monomer SSA assay
# [5] = tested on: S-32 NK-TALEN (synthetic); experiment: cell_activity; conditions: monomer SSA assay
# [6] = tested on: S-30 NK-TALEN (synthetic); experiment: cell_activity; conditions: monomer SSA assay
# [7] = tested on: S-28 NK-TALEN (synthetic); experiment: cell_activity; conditions: monomer SSA assay
# [8] = tested on: S-26 NK-TALEN (synthetic); experiment: cell_activity; conditions: monomer SSA assay
# [9] = tested on: S-40 NK-TALEN (synthetic); experiment: cell_activity; conditions: monomer SSA assay
# [10] = tested on: S-41 NK-TALEN (synthetic); experiment: cell_activity; conditions: monomer SSA assay
# [11] = tested on: S-03 NK-TALEN (synthetic); experiment: cell_activity; conditions: monomer SSA assay
# [12] = tested on: S-04 NK-TALEN (synthetic); experiment: cell_activity; conditions: monomer SSA assay
# [13] = tested on: S-08 NK-TALEN (synthetic); experiment: cell_activity; conditions: monomer SSA assay
# [14] = tested on: S-06 NK-TALEN (synthetic); experiment: cell_activity; conditions: monomer SSA assay
# [15] = tested on: S-24 NK-TALEN (synthetic); experiment: cell_activity; conditions: monomer SSA assay
# [16] = tested on: S-22 NK-TALEN (synthetic); experiment: cell_activity; conditions: monomer SSA assay
# [17] = tested on: S-15 NK-TALEN (synthetic); experiment: cell_activity; conditions: monomer SSA assay
# [18] = tested on: S-38 NK-TALEN (synthetic); experiment: cell_activity; conditions: monomer SSA assay
# [19] = tested on: S-25 NK-TALEN (synthetic); experiment: cell_activity; conditions: monomer SSA assay
# [20] = tested on: S-16 NK-TALEN (synthetic); experiment: cell_activity; conditions: monomer SSA assay
# [21] = tested on: S-17 NK-TALEN (synthetic); experiment: cell_activity; conditions: monomer SSA assay
# [22] = tested on: S-18 NK-TALEN (synthetic); experiment: cell_activity; conditions: monomer SSA assay
# [23] = tested on: S-19 NK-TALEN (synthetic); experiment: cell_activity; conditions: monomer SSA assay
# [24] = tested on: S-20 NK-TALEN (synthetic); experiment: cell_activity; conditions: monomer SSA assay
# [25] = tested on: S-21 NK-TALEN (synthetic); experiment: cell_activity; conditions: monomer SSA assay
# [26] = tested on: S-13 NK-TALEN (synthetic); experiment: cell_activity; conditions: monomer SSA assay
# [27] = tested on: S-09 NK-TALEN (synthetic); experiment: cell_activity; conditions: monomer SSA assay
# [28] = tested on: S-37 NK-TALEN (synthetic); experiment: cell_activity; conditions: monomer SSA assay
# [29] = tested on: S-35 NK-TALEN (synthetic); experiment: cell_activity; conditions: monomer SSA assay
# [30] = tested on: S-33 NK-TALEN (synthetic); experiment: cell_activity; conditions: monomer SSA assay
# [31] = tested on: S-31 NK-TALEN (synthetic); experiment: cell_activity; conditions: monomer SSA assay
# [32] = tested on: S-29 NK-TALEN (synthetic); experiment: cell_activity; conditions: monomer SSA assay
# [33] = tested on: S-27 NK-TALEN (synthetic); experiment: cell_activity; conditions: monomer SSA assay
# [34] = tested on: S-42 NK-TALEN (synthetic); experiment: cell_activity; conditions: monomer SSA assay
# [35] = tested on: S-43 NK-TALEN (synthetic); experiment: cell_activity; conditions: monomer SSA assay
# [36] = tested on: S-44 NK-TALEN (synthetic); experiment: cell_activity; conditions: monomer SSA assay
# [37] = tested on: S-10 NK-TALEN (synthetic); experiment: cell_activity; conditions: monomer SSA assay
# [38] = tested on: S-39 NK-TALEN (synthetic); experiment: cell_activity; conditions: monomer SSA assay
# [39] = tested on: S-12 NK-TALEN (synthetic); experiment: cell_activity; conditions: monomer SSA assay
# S-05 (S5) NK-TALEN = target: T1, S-05 (S5) NK-TALEN; experiment: cell_activity; monomer SSA assay; conditions: tags: 3xFLAG, NLS, FokI
# Experimental: HEK293T cells (ATCC) were cultured in Dulbecco's Modified Eagle Medium (Sigma) supplemented with 10% FBS and 2 mM L-Glutamine. Cells were seeded 80,000 per well of a 24-well plate. After 4 h, cells were transfected with 200 ng of the TALEN plasmid (or 100 ng of each TALEN for hetero-dimeric pairs) and 10 ng of the corresponding SSA reporter plasmid using calcium phosphate transfection. Three control transfections were included: 1) 200 ng of an empty TALEN backbone and 10 ng of an SSA reporter plasmid, 2) 200 ng of an empty TALEN backbone and 10 ng of a pEGFP plasmid, and 3) 100 ng of each GFP-ZFN and 10 ng of an SSA reporter plasmid. Cells were harvested 48 h after transfection. The percentages of pEGFP-transfected samples expressing GFP were determined using an Accuri C6 flow cytometer, as an indication of transfection efficiency. Genomic DNA was isolated using QuickExtract DNA extraction solution (Epicentre) as described20. Sample were PCR amplified for 35 cycles (95° C., 30 s; 60° C., 30 s; 72° C., 60 s) in a 50 μl reaction that contains 2 μl of the extracted DNA, 2.5 μl of each 10 μM target region amplification primer (SSA-Cell-F4, 5′-[…] (SEQ ID NO: 183); SSA-Cell-R4, 5′-[…] (SEQ ID NO: 184)), and 25 μl of GoTaq green master mix (Promega). PCR reactions were then separated on 2% agarose gels and the percentages of SSA-repaired products were quantified using ImageJ.
molecule,measurement,setting,value
ACAAGACAGGTTTAAGGAGACCAAT (double strand) [S-11 half-site],activity,[1],1.5 % SSA
AGACCACCAGCAGCCT (double strand) [S-23 half-site],activity,[2],11.6 % SSA
ATCAGAAACCCAAGAGT (double strand) [S-36 half-site],activity,[3],7.3 % SSA
ATCAGAAACCCAAGAGTCT (double strand) [S-34 half-site],activity,[4],14.8 % SSA
ATCAGAAACCCAAGAGTCTT (double strand) [S-32 half-site],activity,[5],10.5 % SSA
ATCAGAAACCCAAGAGTCTTCT (double strand) [S-30 half-site],activity,[6],17.9 % SSA
ATCAGAAACCCAAGAGTCTTCTCT (double strand) [S-28 half-site],activity,[7],15.3 % SSA
ATCAGAAACCCAAGAGTCTTCTCTGT (double strand) [S-26 half-site],activity,[8],11.7 % SSA
ATTGCTTACATTTGCTTCTGACACAACT (double strand) [S-40 half-site],activity,[9],2.5 % SSA
ATTGCTTACATTTGCTTCTGACACAACTGT (double strand) [S-41 half-site],activity,[10],3.1 % SSA
CAAACAGACACCATGGTGCACCT (double strand) [S-03 half-site],activity,[11],4.9 % SSA
CAAACAGACACCATGGTGCACCTGA (double strand) [S-04 half-site],activity,[12],2.5 % SSA
CACCTTGCCCCACAGGGCAGTA (double strand) [S-08 half-site],activity,[13],1.9 % SSA
CACCTTGCCCCACAGGGCAGTAA (double strand) [S-06 half-site],activity,[14],5.3 % SSA
CCAAGGGTAGACCACCAGCAGCCT (double strand) [S-24 half-site],activity,[15],1.3 % SSA
CCACGTTCACCTTGCCCCACAGGGCAGT (double strand) [S-22 half-site],activity,[16],4.5 % SSA
CCTGTGGAGAAGTCTGCCGT (double strand) [S-15 half-site],activity,[17],3 % SSA
CTATTGCTTACATTTGCTTCTGACACAACT (double strand) [S-38 half-site],activity,[18],3.7 % SSA
CTCCACAGGAGTCAGGTGCACCAT (double strand) [S-25 half-site],activity,[19],11.1 % SSA
CTGATAGGCACTGACTCT (double strand) [S-16 half-site],activity,[20],30.9 % SSA
CTGATAGGCACTGACTCTCT (double strand) [S-17 half-site],activity,[21],29.2 % SSA
CTGATAGGCACTGACTCTCTCT (double strand) [S-18 half-site],activity,[22],26.2 % SSA
CTGATAGGCACTGACTCTCTCTGCCT (double strand) [S-19 half-site],activity,[23],17.2 % SSA
CTGATAGGCACTGACTCTCTCTGCCTAT (double strand) [S-20 half-site],activity,[24],16.6 % SSA
CTGATAGGCACTGACTCTCTCTGCCTATT (double strand) [S-21 half-site],activity,[25],21.8 % SSA
CTTGGGTTTCTGATAGGCACTGACTCTCT (double strand) [S-13 half-site],activity,[26],13 % SSA
GCCCCACAGGGCAGTAACGGCAGA (double strand) [S-09 half-site],activity,[27],6.2 % SSA
GCCTATCAGAAACCCAAGAGT (double strand) [S-37 half-site],activity,[28],4.8 % SSA
GCCTATCAGAAACCCAAGAGTCT (double strand) [S-35 half-site],activity,[29],8.1 % SSA
GCCTATCAGAAACCCAAGAGTCTT (double strand) [S-33 half-site],activity,[30],4.9 % SSA
GCCTATCAGAAACCCAAGAGTCTTCT (double strand) [S-31 half-site],activity,[31],9.7 % SSA
GCCTATCAGAAACCCAAGAGTCTTCTCT (double strand) [S-29 half-site],activity,[32],5.3 % SSA
GCCTATCAGAAACCCAAGAGTCTTCTCTGT (double strand) [S-27 half-site],activity,[33],3.5 % SSA
GCTTACATTTGCTTCTGACACAACT (double strand) [S-42 half-site],activity,[34],4.3 % SSA
GCTTACATTTGCTTCTGACACAACTGT (double strand) [S-43 half-site],activity,[35],4.1 % SSA
GCTTACATTTGCTTCTGACACAACTGTGT (double strand) [S-44 half-site],activity,[36],3.2 % SSA
GCTTACATTTGCTTCTGACACAACTGTGTT (double strand) [S-10 half-site],activity,[37],8.4 % SSA
GGGTTTCTGATAGGCACTGACTCTCTCT (double strand) [S-39 half-site],activity,[38],5 % SSA
TGCCCCACAGGGCAGT (double strand) [S-12 half-site],activity,[39],11 % SSA
B1,activity,S-05 (S5) NK-TALEN,6.1 % SSA
